{
  "source": "the nanobody polyreactivity screen of Harvey et al. (2022)",
  "data": [
    {"assay": "yeast display, Sf9 membrane polyspecificity reagent, FACS + sequencing; frameworks hold sequencing errors", "summary_of_the_method": "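Using colony PCR, genes from sorted yeast display clones were amplified, then sequenced on MiSeq at 2 × 250 and filtered by CDR length. The clones had been stained with 10% biotinylated, detergent-solubilized Sf9 membrane reagent for 1 hour at 4 °C and sorted by FACS into low and high (top ~1%) gates on anti-HA and streptavidin fluorescence. Polyreactivity labels come from the gate of origin.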", "values": [
      {"sequence": "QVQLVESGGGLVQAGGSLRLSWAASGSSFGYAMGWYRQGPGKERELVAAISFSGVSTYYADSVKGRFTISRDNAKHTVYLQMNSLKPEDTAVYYCNAYSDGDEDYWGQGTQVTVSS", "polyreactivity (PSR sort gate)": "low polyreactivity"},
      {"sequence": "QVQLVESGGGLVQAGGSLRLSCAASGFTFSYNAMGWYRQAPGKERELVAAIDWGGGSTYSYSVKGRFTISRDNAKNTVYLQMNSLKPEDTAVYYCAAYIPSSGRNPEIGVEYDYWGQGTQVTVSS", "polyreactivity (PSR sort gate)": "low polyreactivity"},
      {"sequence": "QVQLVESGGGLVQAGGSLRLSCAASGSTFLWYAMGWYRQAPGKERELVAVIDWSGGSTSYADSVKGRFTISRDNAKNTVYLQMNSLKPEDTAVYYCAADYGHYYGLYYWGQGTQVTVSS", "polyreactivity (PSR sort gate)": "low polyreactivity"},
      {"sequence": "QVQLVESGGGLVQAGGSLRLSCAASGSTFTPNARGSYRQAPGKERELVAAINYLGGSTYYADSVKGRFTISRDNAKNTVYVQMNSLKPEDTAVYYCARRQYFRGQRYDYWGQGTQVTVSS", "polyreactivity (PSR sort gate)": "high polyreactivity"},
      {"sequence": "QVQLVESGGGLVQAGGSLRLSCAASGRIFVVYAMGWYRQAPGKERELVASITWRGGSTYYADSVKGRFTISRDNAKNTVDLQMNSLKPEDTAVYYCAAELDVYVSIGSRFHFDYCGQGTQVTVSS", "polyreactivity (PSR sort gate)": "low polyreactivity"},
      {"sequence": "QVQLVESAGGLVQAGGSLRLSCAASGITFWYYTMGWYRQAPGKERELVAAINGRGGSTYYADSVKGRFTISRDNAKNTVYLQMNSLKPEDTAVYYCNAVGIWFQIRLIVPYDYWGQGTQVTVSS", "polyreactivity (PSR sort gate)": "low polyreactivity"},
      {"sequence": "QVQLVESGGGLVQAGGSLRLSCAASAFTLYPYAKGWYRQAPGKERELVAAISGSGGSTYYADSVKGRFTISRDNAKNTVYLQMNRLKPEDTAVYYCAARYLDVRPFYYWGQGTQVTVSS", "polyreactivity (PSR sort gate)": "high polyreactivity"},
      {"sequence": "QVQLVESGGGLVQAGGSLRLSCAASGRIFYSNAMGWYRQAHGKERELVAAITGSGGRTHYADSVKGRFTISRDNAKNSVYLQMNSLKPEDTAVYYCAKDGYFPEFDYWGQGTQVTVSS", "polyreactivity (PSR sort gate)": "high polyreactivity"},
      {"sequence": "QVQLVESGGGLVQAGGSLRLSCAASGSIFADYAMGWYRQAPGKERELVAAITGSGGRTYYADSVKGRFTISRDNAKNTVYLQMNSLKPEDTAVYYCAVRHRYTRAYWGRDYWGQGTQVTVSS", "polyreactivity (PSR sort gate)": "low polyreactivity"},
      {"sequence": "QVHLVESGGGLVQAGGSLRLSCAATGSIFDQNAMGWYRQAHGKVRELVAAITRGGSTKYADSVKGRFTISRDNAKNTVYLQMNSLKPEDTAVYYCARTARRRYQPYEYWGQGTQVTVSS", "polyreactivity (PSR sort gate)": "low polyreactivity"},
      {"sequence": "QVQLVDSGGGLVQAGGSLRLSCAASGITLYRYVMRWYRQAPGKESELVADISGRGTSTYYADSVKGPFTISRDNAKNTVYLQMNSLKPEDTAVYYCNAEYTKTGALVIPYTYYYAEDYWGQGTQVTVSS", "polyreactivity (PSR sort gate)": "low polyreactivity"},
      {"sequence": "QVQLVESGGGLVQAGGSLRLSCAASGLTFGRNAMGWYRQAPGKERELVAAISQSGDRTYYADSVKGRFTISRDNAKNTVYLQMNSLKPEDTAVYYCNAVSSRGWYDYWGQGTQVTLSS", "polyreactivity (PSR sort gate)": "high polyreactivity"},
      {"sequence": "QVQLVESGGGLVQAGGSLRLSCAASGSLFNRNVMGWYRQAPGKERELVAAMTRGGRTSYADSVKGRFTISRDNAKNTVYLQMNSLKPEDTAGYYCAARRGYWVDYWGQGTQVTVSS", "polyreactivity (PSR sort gate)": "high polyreactivity"},
      {"sequence": "QVQLVESGGGLVQEGGSLRLSCAATGSIFSSYAMGWYRQAPGKERELVASINSAGSTNYADSVKGRFTISRDNAKITVYLQMNSLKPEDTAVYYCARGGAVVYLDYWGQGTQVTVSS", "polyreactivity (PSR sort gate)": "low polyreactivity"},
      {"sequence": "QVQLVESGGGLVQAGGSLRLSCAASGFTFTYYVMGWYRQAPGKERELVAAITSSGGRTYYADSVKGRFTISRDNAKNTVYLQMNSLKPEDTAVYYCNKGPLPGYDYWGQGTQVTVSS", "polyreactivity (PSR sort gate)": "high polyreactivity"},
      {"sequence": "QVQLVESGGRLVQAGGSLRLSCAASGSTIYGYAMGWYRQAPGKERELVATIRSGGSTYYADSVKGRFTISRDNAKNTVYLQMNCLIPEDTAVYYCAAKRWRGYGGGYSWGQGTQVTVSS", "polyreactivity (PSR sort gate)": "high polyreactivity"},
      {"sequence": "QLQLEDSAGGLVQAGGSLRLSFAASGFIFDPNAIGWYRQAPAKEREFVAAIRTSGGSTYYADSVKGRFTISRDNAKNTVYLQMNSLKPEDPAVYYCAAKGRYADWSGYGYWGQGTQVTVSS", "polyreactivity (PSR sort gate)": "high polyreactivity"},
      {"sequence": "QVQLVESGGGLVQAGGSLRLSCAASGITFNHYAMGWSRQAPGKERELVAVISRTVGSTYYADSVKGRFTISRDNAKNTVYLQMNSLKPEDTAVYYCAARGPRPDGYSGRSDYWGQGTQVTVSS", "polyreactivity (PSR sort gate)": "high polyreactivity"},
      {"sequence": "QVQLVESGGGLVQAGGSLRLSCAASGRTFPGYAMGWYRQAPGKERELVAGISYRGGSTYYADSVKGRFTISRDNAKNTVYLQMNSLKPEDTAVYYCNATYGGPYYIQYDYWGQGTQVTVSS", "polyreactivity (PSR sort gate)": "low polyreactivity"},
      {"sequence": "QVQLVESGGGLVQAGGSLRLSCAASGITFLSNAMGWYRQAPGKERELVAAISRGGGTTYYADSVKGRFTISRDIAKNTVYLQMNSLKPEDTAVYYCAKGRCSSSRFDYWGQVTQVTVSS", "polyreactivity (PSR sort gate)": "high polyreactivity"},
      {"sequence": "QVQLVESGGGLVKAGGSLRLSCAASGLIFAYYDMGWYRQAPGKERELVASITGSGGDTYYADSVKGRFTISRDNAKNTVYLQMNSLKPEDTAVYYCNAYYGAAFTYWDDYWGQGTQVTVSS", "polyreactivity (PSR sort gate)": "low polyreactivity"},
      {"sequence": "QVQLVESGGGLVQAGGSLRLSCAASGSTFGFYTMGWYRQAPGKERELVAAISRGGGRTYYADSVKGRFTISRDNAKNTVYLQMNSLKPEDTAVYYCAARSTQGRFEYWGQGTQVTVSS", "polyreactivity (PSR sort gate)": "high polyreactivity"},
      {"sequence": "QFQLVDSGGGLVQAGGSLRLSCAASGRTFFFYAMGWYRQAPGKERELVASITWSGGTRTYYADSVKGRFTISRDNAKNTVYLQMNSLKREDTAVYYCADTYSSYWFNRYGGKYYYWGQGTQVTVSS", "polyreactivity (PSR sort gate)": "high polyreactivity"},
      {"sequence": "QVQLVESGGGLVQAGGSLRLSCAASGFTFPKYAMGWYRQAPGKERELVAAISYRGGSTYYADSVKGRFTISRDNAKNTVYLQMNSLKPEDTAVYYCAAEIPHAPYEYWGQGTQVTVSS", "polyreactivity (PSR sort gate)": "high polyreactivity"},
      {"sequence": "QVQLVESGVGLVQAVVSLRISCAASGSNFNYYAMGWYRQAPGKERELVAAISGSGATTYYADSVKGRFTISRDNAKNTVYLQMNSLKPEDTAVYYCATTRRWYIGYDYWGQGTQVTVSS", "polyreactivity (PSR sort gate)": "high polyreactivity"},
      {"sequence": "QVLLVESGGGLVQAGGSLRLSCAASGRTFSINAMGWDRQAPGKERELVAAITKRRSTYYADSVKGRFTISRDNAKNSVYLQMNSLKPEDTAVYYCNARYRGRVYDRFGYWGQGTQVTVSS", "polyreactivity (PSR sort gate)": "high polyreactivity"},
      {"sequence": "QVQLVESGGGLVQAGGSLRLSCAASGRIFWRYAMGWYRQAPGKERELVAAITSGGNTYYADSVKGRFTISRDNAKNTVYLQMNSLKPEDTAVYYCATVFSVQGWYFGMNYWGQGTQVTVSS", "polyreactivity (PSR sort gate)": "low polyreactivity"},
      {"sequence": "QVQLVESGGGLVQAGGSLRLSCAASGYTFDSYTMGWYRQAPGKERELFAAITRSGSSTYYADSVKGRFTISRDNAKNTVYLLMNSLKPEDTAVYYCAAGWRRAAGIQYWYGYWGQGTQVTVSS", "polyreactivity (PSR sort gate)": "high polyreactivity"},
      {"sequence": "QVQLVESGGGLVQAGGSLRLSCAASGYTLRPNGMGWYRQAPGKERELVAAISSGGSTYYADSVKGRFTISRDNAKNTVYLQMNSLKPEDTAVYYCAAEYWYDYWGQGTQVTVSS", "polyreactivity (PSR sort gate)": "low polyreactivity"},
      {"sequence": "QEQLEESGGGLVQAGGSLRLSCAASGRIFAAYAKGWYRPAPGKEREVVAGITRTGGSTYYADSVKGRFTISRDNAKNTVYLQMNSLKPEDTAVYYCAARWIWRGYDYWGQGTKVTVSS", "polyreactivity (PSR sort gate)": "high polyreactivity"},
      {"sequence": "QVQLVESGGGLVQAGGSLRLSCAASGFTFVYNAMGWYRQAPGKERELVAAITSGGNTYYADSVKGRFTISRDNAKNTVYLQMNSLKPEDTAVYYCAKRGYGRYYAYDYWGQGTQVTVSS", "polyreactivity (PSR sort gate)": "high polyreactivity"},
      {"sequence": "QVQLVESGGGLVQAGGSLRLSCAASGRILRYNAMGWYRQAPGKERELVASISGNGGSTYYADSVKGRFTISRDNAKNTVYLQMKSLKPEDTAVYYCNKYYYSSRGQKEYDYWGQGTQVTVSS", "polyreactivity (PSR sort gate)": "low polyreactivity"},
      {"sequence": "QVQLVESGGGLVQAGGSLRLSCAASGIIFFSNAMGWYRQAPAQEMELVAAITGGSSTNYADSVKGRFTISRDNAKNTVYLQMNSLKPEDTAVYYCNAPTKSTPRSEPIPYYEFDYWGQGTQVTVSS", "polyreactivity (PSR sort gate)": "low polyreactivity"},
      {"sequence": "QVQLVESGGGLVQAGGSLRLSCAASGRIGVYAMGWYRQAPGKERELVAAIRRSGGNTYYADSVKGRFTISRDNAKNTVYLQMNSLKPEDTAVYYCAAGRPYRFYPRYDYWGQGTQVTVSS", "polyreactivity (PSR sort gate)": "high polyreactivity"},
      {"sequence": "QVQLVESGGGLVQAVGSHRLSCAASGRIFGNNVMGWYRQEPGKERELVAANTFSGTSTYYADSVKGRFTISRDNAKNTVYLQMNSLKPEDTAVYYCAKYRYADYYSPGYDYWGQGTQVTVSS", "polyreactivity (PSR sort gate)": "low polyreactivity"},
      {"sequence": "KVQLVESGGGLVQAGGSLRLSCAASGFIFLGYAMGWYRQAPGKEREFVAVISRSGVRTYYADSVKGRFTISRDNAKNTVYLQMNSLKPEDTAVYYCAARYYSTDLEYWGQGTQVTVSS", "polyreactivity (PSR sort gate)": "high polyreactivity"},
      {"sequence": "QVQLVESGGGLVQAGGSLRLSCAASGSILAGYAMGWYRQAPGKERELVAAISDSGGNTYYADSVKGRFTISRDTAKNTVYLQMNSLKPEDTAVYYCAADLGYGPLRELEYWGQGTQVNVSS", "polyreactivity (PSR sort gate)": "low polyreactivity"},
      {"sequence": "QVQLVESGGGLVQAGGSLRLSCAASGIIFVKYVMGWYRQAPGKERELVAAISLGGGSTYYADSVKGRFTISRDNAKNTVYLQMNSLKPEDTAVYYCAAVRWTSRSRYDYWGQGTQVTVSS", "polyreactivity (PSR sort gate)": "high polyreactivity"},
      {"sequence": "QVQLVESGGGLVQAGGSLRLSCAASGRTFGNNAMGWYRQAPGKERELVAAISRSGGSTYYADSVKGRFTISRDNAKNTVYLQMNSLKPEDTAVYYCAARLYGGYDWGQGTQVTVSS", "polyreactivity (PSR sort gate)": "high polyreactivity"},
      {"sequence": "QVQLVESGGGLVQAGGSLRLSCAASGLTFQNNAMGWYRQAPGKERELVAAISDGGSTNYADSVKGRFTISRDNAKNTVYLQMNSLKPEDTAVYYCAAVYTSASYGSWGQGTQVTVSS", "polyreactivity (PSR sort gate)": "low polyreactivity"},
      {"sequence": "QVQLVESGGGLVQAGGSLRLSCAASGYIFKSNVMGWYRQAPGKERELVAAISWSGGRTYYADSVKGRFTISRDNAKNTDYLQMNSLKPEDTAVYYCAAVGRQSNYYVDYDYWGQGTQVTVSS", "polyreactivity (PSR sort gate)": "high polyreactivity"}
    ]}
  ]
}
